Data on four molecules can be found in patent publication EP4616869A1, “FAP TARGETED ANTIBODY-DRUG CONJUGATES” (Oncomatryx Biopharma, S.L., priority 2024, dated 2025).

Data set [1] concerns HCT116 (low Pgp expression). Briefly: Cell viability assay (crystal violet staining), payloads, HCT116. The class given is cell-based. Conditions: HCT116, 48 hours incubation. The protocol:
(§1) The cytotoxic activity of A1B1 cytolysin and MMAE payloads was analyzed via cell-viability assay using the colorectal cancer cell lines HCT15 (high Pgp expression) and HCT116 (low Pgp expression). The day before the assay, cells were seeded and cultivated overnight at 37 °C. Titration of the payloads diluted in medium was added to the cells and incubated for 48 hours at 37 °C. Finally, cell viability was analyzed by crystal violet staining.

In data set [2] the test system is HCT15 (high Pgp expression). The data set is described as follows: Cell viability assay (crystal violet staining), payloads, HCT15. In kind it is cell-based. To be noted: HCT15, 48 hours incubation, read-out: IC 50 HCT15. The protocol: as §1
Data set [3] concerns the target Fibroblast activation protein (FAP) on FAP-expressing HT1080-FAP cells (UniProt Q12884). The data set is described as follows: flow cytometry on HT1080-FAP cells, PE-labeled anti-human Fc secondary antibody, MFI.
Data set [4] has the same target. The data set is described as follows: cell-based or functional assay.
Data set [5] addresses T1, Fibroblast activation protein (FAP) on FAP-expressing HT1080-FAP cells (UniProt Q12884 1-760, limits assumed).
T1 sequence (looked up): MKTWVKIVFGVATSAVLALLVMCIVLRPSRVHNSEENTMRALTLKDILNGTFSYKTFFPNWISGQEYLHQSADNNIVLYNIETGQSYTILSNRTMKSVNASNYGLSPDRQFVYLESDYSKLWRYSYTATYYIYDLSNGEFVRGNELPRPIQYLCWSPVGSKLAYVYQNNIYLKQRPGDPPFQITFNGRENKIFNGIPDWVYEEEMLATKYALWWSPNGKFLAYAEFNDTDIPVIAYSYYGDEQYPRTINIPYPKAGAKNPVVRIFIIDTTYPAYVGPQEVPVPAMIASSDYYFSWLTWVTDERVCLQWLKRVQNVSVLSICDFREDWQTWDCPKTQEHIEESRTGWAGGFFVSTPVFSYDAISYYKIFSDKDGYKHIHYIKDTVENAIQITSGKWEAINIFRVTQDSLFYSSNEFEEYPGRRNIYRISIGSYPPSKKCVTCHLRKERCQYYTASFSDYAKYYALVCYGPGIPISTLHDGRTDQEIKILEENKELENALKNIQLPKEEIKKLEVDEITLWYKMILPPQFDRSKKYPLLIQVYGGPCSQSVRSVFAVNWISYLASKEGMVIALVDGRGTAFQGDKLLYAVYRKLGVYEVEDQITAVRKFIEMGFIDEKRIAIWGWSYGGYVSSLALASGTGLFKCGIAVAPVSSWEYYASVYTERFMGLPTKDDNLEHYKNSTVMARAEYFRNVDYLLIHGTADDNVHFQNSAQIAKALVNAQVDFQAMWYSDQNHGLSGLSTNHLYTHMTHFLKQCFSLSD
The data set is described as follows: cell-based or functional assay.

For data set [6], the target named is T1, Fibroblast activation protein (FAP) on …. The data set is described as follows: flow cytometry on HT1080-FAP cells, PE-labeled anti-human Fc secondary antibody, MFI. For orientation: A flow cytometer gives signals particle by particle.
The next data set relates to HT1080-FAP cells. Briefly: ADC cytotoxic activity, cell viability assay, HT1080-FAP. The class given is cell-based. The protocol: (§2) OMTX105 cytotoxic activity was analyzed via cell viability assay using HT1080-FAP and HT1080-WT cells. […] Here, a concentration of half-maximal killing of 64 pM for OMTX105 was determined compared to 750 pM for OMTX705. […] Specificity ratio between both cell lines was 1,205 for OMTX105 while for OMTX705 the value was 82 (Figure 3). Table 4: Comparative in vitro binding and cytotoxic activity values of OMTX105 and OMTX705 ADCs

Another data set deals with HT1080-WT cells. The data set is described as follows: ADC cytotoxic activity, cell viability assay, HT1080-WT. In kind it is cell-based. To be noted: read-out: Concentration of half maximal killing HT1080 WT. The protocol:
as §2

For data set [7], the system named is Panc007 pancreatic ductal adenocarcinoma patient derived xenograft. Briefly: In vivo efficacy and tolerability in the Panc007 patient-derived xenograft model. Further details: species or system female Athymic nude-Foxn1 (nude/nude) mice. To be noted: for TGI value: day 28. The protocol: The antitumor activity of OMTX105 vs OMTX705 was evaluated in the Panc007 pancreatic ductal adenocarcinoma patient derived xenograft mode in female Athymic nude-Foxn1 (nude/nude) mice.
Both OMTX105 and OMTX705 were administered intravenously at 5 and 20 mg/kg once a week for 4 weeks.
(In general: In xenograft studies the graft and the host belong to different species.)

In data set [8] the test system is HT1080-FAP transfected cells. Briefly: In vivo efficacy and tolerability in the HT1080-FAP tumor model with huPBMCs. Further details: species or system female NOD scid gamma (NSG) mice. The protocol: To evaluate the in vivo efficacy of OMTX1 05 and OMTX705, both ADCs were tested in female NOD scid gamma (NSG) mice co-inoculated with HT1080-FAP transfected cells and huPBMCs.
After 7 days, mice were randomized according to tumor size in the different treatment groups. Treatments with OMTX105 and OMTX705 as single agents were initiated, both with a weekly intravenous dose of 20 mg/kg over 3 weeks.
Tumor volume and animal weight were measured 3 times a week to monitor the evolution of tumor growth and weight change upon treatment.

Setting [9] is: 5 and 20 mg/kg intravenously once a week for 4 weeks.
The mark [10] stands for this setting: weekly intravenous dose of 20 mg/kg over 3 weeks.

Read-outs that look alike come from different tables or passages of the source. Non-standard residues stand in square brackets, D forms with d. Residues, ends and D or L forms follow the SMILES beside them. *: point of attachment. Dolaproine = CO[C@@H]([C@@H]1CCCN1)[C@@H](C)C(=O)O; Dil = CC[C@H](C)[C@H](NC)[C@@H](CC(=O)O)OC; X1 = C[C@@H](N*)[C@@H](O)c1ccccc1; NMeV = CN[C@H](C(=O)O)C(C)C

As for `CC[C@H](C)[C@@H]([C@@H](CC(=O)N1CCC[C@H]1[C@H](OC)[C@@H](C)C(=O)N[C@H](C)[C@@H](O)c1ccccc1)OC)N(C)C(=O)[C@@H](NC(=O)[C@@H](NC)C(C)C)C(C)C` [MMAE, Monomethyl auristatin E] (H-[NMeV]V[Dil][Dolaproine]-X1), the IC50 in data set [1] came out at 2.5 ± 0.4 nM; in data set [1] (Homo sapiens, HCT-116, 48 h) it was 3 nM; in [2], 39.5 ± 10.1 nM; in data set [2] (Homo sapiens, HCT-15, 48 h), 40 nM.
As for “OMTX705 antibody-drug conjugate (anti-FAP monoclonal antibody conjugated to a cytolysin payload)”, the EC50 in [3] is 0.204 nM. For the same molecule, in [4], the Concentration of half maximal killing, HT1080FAP (cell viability assay) was found to be 750 pM; the Specificity ratio between HT1080WT and HT1080FAP (cell viability assay) worked out at 82.

B1: OMTX105 antibody-drug conjugate (anti-FAP IgG antibody conjugated with the drug-linker vcMMAE) (antibody, V domains shown)
VH: QVQLVQSGAEVKKPGASVKVSCKASGYTFTENIIHWVRQAPGQGLEWMGWFHPGSGSIKYNEKFKDRVTMTADTSTSTVYMELSSLRSEDTAVYYCARHGGTGRGAMDYWGQGTLVTVSS
VL: DIQMTQSPSSLSASVGDRVTITCRASKSVSTSAYSYMHWYQQKPGKAPKLLIYLASNLESGVPSRFSGSGSGTDFTLTISSLQPEDFATYYCQHSRELPYTFGQGTKLEIKR
modifications: drug-linker vcMMAE on cysteine residues of the antibody (non-site specific, thiol-based); DAR 3.92; the cysteines are not stated
notes: also called OMTX105 ADC; anti-FAP MMAE ADC
As for B1, the “Specificity ratio between HT1080WT and HT1080FAP (cell viability assay)” value in data set [5] stood at 1200. The molecule also gave an EC50 in data set [6] of 0.255 nM.

B2: OMTX105: anti-FAP IgG antibody conjugated with the drug-linker vcMMAE, through thiol-based reaction on the cysteine residues of the antibody (conjugate)
heavy: QVQLVQSGAEVKKPGASVKVSCKASGYTFTENIIHWVRQAPGQGLEWMGWFHPGSGSIKYNEKFKDRVTMTADTSTSTVYMELSSLRSEDTAVYYCARHGGTGRGAMDYWGQGTLVTVSSASTKGPSVFPLAPSSKSTSGGTAALGCLVKDYFPEPVTVSWNSGALTSGVHTFPAVLQSSGLYSLSSVVTVPSSSLGTQTYICNVNHKPSNTKVDKKVEPKSCDKTHTCPPCPAPPVAGPSVFLFPPKPKDTLMISRTPEVTCVVVDVSHEDPEVKFNWYVDGVEVHNAKTKPREEQYNSTYRVVSVLTVLHQDWLNGKEYKCKVSNKGLPSSIEKTISKAKGQPREPQVYTLPPSRDELTKNQVSLTCLVKGFYPSDIAVEWESNGQPENNYKTTPPVLDSDGSFFLYSKLTVDKSRWQQGNVFSCSVMHEALHNHYTQKSLSLSPGK
light: DIQMTQSPSSLSASVGDRVTITCRASKSVSTSAYSYMHWYQQKPGKAPKLLIYLASNLESGVPSRFSGSGSGTDFTLTISSLQPEDFATYYCQHSRELPYTFGQGTKLEIKRTVAAPSVFIFPPSDEQLKSGTASVVCLLNNFYPREAKVQWKVDNALQSGNSQESVTEQDSKDSTYSLSSTLTLSKADYEKHKVYACEVTHQGLSSPVTKSFNRGEC
For the molecule B2, the EC50 in the data set with HT1080-FAP cells (HT1080-FAP cells, read-out: Concentration of half maximal killing HT1080FAP) turned out to be 0.064 ± 0.033 nM; in the data set on HT1080-WT cells it was 77.2 nM. Moreover, the “Specificity ratio between HT1080WT and HT1080FAP” value in the data set on HT1080-FAP cells (ratio of half maximal killing concentrations, HT1080-WT to HT1080-FAP) is 1,205. The TGI value in [7] (5 mg/kg intravenously once a week for 4 weeks) is 85%; in [7] (20 mg/kg intravenously once a week for 4 weeks), 136%. Moreover, in data set [7] (setting [9]), the “adverse effects or animal death” value was “no adverse effects or animal death”. Besides, in [7] (setting [9]), the “tolerability (body weight data and clinical observations)” value is reported as “well tolerated”. Besides, the weight loss result in data set [7] (both 5 mg/kg and 20 mg/kg, after 56 days) is “no weight loss observed”. The tolerability entry in data set [8] (20 mg/kg, 21-day test period) is reported as “well tolerated”. Moreover, in [8] (setting [10]), the complete response entry is “complete response in this model at day 7”. The “percentage tumor growth inhibition (TGI)” value in data set [8] (setting [10]) amounted to 104.98%. Further, in data set [8] (weekly intravenous dose of 20 mg/kg, 21-day test period), the “weight loss, toxic effect” value was “No weight loss, nor toxic effect”.
